Values joined by “and” are separate entries in the source; they are usually repeats but may differ in a detail not shown here. Identical values can stand only once.
B1: Gamma-crystallin D, P07320 (parent)
chain: MGKITLYEDRGFQGRHYECSSDHPNLQPYLSRCNSARVDSGCWMLYEQPNYSGLQYFLRRGDYADHQQWMGLSDSVRSCRLIPHSGSHRIRLYEREDYRGQMIEFTEDCSCLQDRFRFNEIHSLNVLEGSWVLYELSNYRGRQYLLMPGDYRRYQDWGATNARVGSLRRVIDFS

Variants of: B1
Conditions: Homo sapiens; pH 7; 37 °C; GdnHCl; Fluorescence; Sodium phosphate 10 mM; transition: 3; structure 1HK0; whole UniProt chain shown

Variant	ddG of mutation (higher = less stable)	denaturant m value	denaturant midpoint (higher = more stable)	unfolding free energy
R80A	1 kcal/mol and 1.3 kcal/mol	3.4 kcal/mol/M and 2.7 kcal/mol/M	1.8 M and 2.9 M	6.7 kcal/mol and 7.6 kcal/mol
M147A	0 kcal/mol	3.1 kcal/mol/M	2.8 M	8.9 kcal/mol
Q55A	–	3.8 kcal/mol/M and 3.4 kcal/mol/M	2 M and 2.9 M	7.5 kcal/mol and 9.6 kcal/mol
Q55A Q143A	–	3.5 kcal/mol/M and 3.1 kcal/mol/M	1.8 M and 3.1 M	6.3 kcal/mol and 9.6 kcal/mol
R80A M147A	–	3.2 kcal/mol/M	1.7 M and 2.8 M	5.6 kcal/mol and 8.9 kcal/mol
Q143A	–	3.8 kcal/mol/M and 3 kcal/mol/M	1.9 M and 3 M	7.2 kcal/mol and 9 kcal/mol

Source: FireProtDB (doi:10.1110/ps.051460505)
